Laboratory results published in patent US20090054362.

What was measured:
[1] = biological target: HIV-1 Ba-L virus (envelope gp120) (HIV-1 Ba-L) (UniProt P03375); test: cell_activity; conditions: 2'-F C and U; neutralization in human PBMCs, p24 ELISA
[2] = biological target: gp120 (SU envelope glycoprotein) (HIV-1 Ba-L) (UniProt P03375); test: EMSA; conditions: 2'-F C and U, tRNA, room temp, also dose-dependent SPR

## GGGAGACAAGACUAGACGCUCAAUGUGGGCCACGCCCGAUUUUACGCUUUUACCCGCACGCGAUUGGUUUGUUUCCC [B40t77]
[1]
  IC50: 2 nM
[2]; 1x cHBS
  Kd: 31 nM

## GGGAGACAAGACUAGACGCUCAAUGUGGGCCACGCCCGAUUUUACGCUUUUACCCGCACGCGAUUGGUUUGUUUUCGACAUGAGACUCACAACAGUUCCCUUUAGUGAGGGUUAAUU [B40]
[1]
  IC50: 2 nM
[2]; 1x cHBS (10 mM HEPES pH 7.4, 150 mM NaCl, 1 mM CaCl2, 1 mM MgCl2, 2.7 mM KCl)
  Kd: 21 nM
